The values that follow come from patent US20240209065A1 (SINGLOMICS BEIJING DANXU BIOPHARMACEUTICALS, published 2024).

The target in assay [1] is S protein of authentic SARS-CoV-2 G614 virus (SARS-CoV-2, UniProt P0DTC2 14-1273). Description: cell-based or functional assay.
Assay [2] has the same target. Description: cell-based or functional assay. The source holds these as a separate data set.

B1: XG014 IgG (antibody, V domains shown)
VH: EVQLVQSGAEVKKPGESLKISCKGSGYSFSNYWIGWVRHMPGKGLEWMGIIYPGDSDTRYSPSFQGQVTISVDTSISTAYLQWSSLKASDTAMYYCTRHQYGYNYGYFYYYIDVWGKGTTVTVSS
VL: QSVLTQPPSVSAAPGQKVTISCSGSSSNIGNNPVSWYRQVPGTAPKLLIYDNNKRPSGIPDRFSGSKSGASATLGITGLQTGDEADYYCGTWHTSLSSGVFGGGTKLTVL
As for B1, the “IC50, microneutralization assay with authentic virus” value (“IC50, microneutralization assay” for short) in assay [1] worked out at 0.24 nM.

B2: DXP-604 dimeric IgA1 (antibody)
heavy: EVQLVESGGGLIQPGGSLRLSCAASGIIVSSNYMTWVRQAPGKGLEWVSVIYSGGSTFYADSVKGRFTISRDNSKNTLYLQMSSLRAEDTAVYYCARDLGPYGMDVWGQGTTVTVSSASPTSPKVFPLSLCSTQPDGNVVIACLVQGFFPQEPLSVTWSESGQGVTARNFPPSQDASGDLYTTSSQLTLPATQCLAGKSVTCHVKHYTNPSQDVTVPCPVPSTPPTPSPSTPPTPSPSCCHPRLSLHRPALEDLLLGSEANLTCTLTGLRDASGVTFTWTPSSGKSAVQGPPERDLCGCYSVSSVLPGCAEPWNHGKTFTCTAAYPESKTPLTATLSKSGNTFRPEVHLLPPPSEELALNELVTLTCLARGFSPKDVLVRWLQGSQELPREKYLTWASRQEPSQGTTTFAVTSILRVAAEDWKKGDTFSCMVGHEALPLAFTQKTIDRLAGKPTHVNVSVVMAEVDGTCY
light: DIQLTQSPSFLSASVGDRVTITCRASQGISSDLAWYQQKPGKAPNLLIYAASTLQSGVPSRFSGSGSGTEFTLTISSLQPEDFATYYCQQLNSDLYTFGQGTKLEIKRTVAAPSVFIFPPSDEQLKSGTASVVCLLNNFYPREAKVQWKVDNALQSGNSQESVTEQDSKDSTYSLSSTLTLSKADYEKHKVYACEVTHQGLSSPVTKSFNRGEC
chain: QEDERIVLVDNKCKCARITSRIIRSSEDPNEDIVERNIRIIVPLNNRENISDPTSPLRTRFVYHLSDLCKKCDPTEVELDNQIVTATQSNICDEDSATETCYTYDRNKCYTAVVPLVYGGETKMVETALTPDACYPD
Consider B2, for which, in assay [2], the “IC50, microneutralization assay” value turned out to be 0.11 nM.

B3: DXP-604 secretory IgA1 (antibody)
heavy: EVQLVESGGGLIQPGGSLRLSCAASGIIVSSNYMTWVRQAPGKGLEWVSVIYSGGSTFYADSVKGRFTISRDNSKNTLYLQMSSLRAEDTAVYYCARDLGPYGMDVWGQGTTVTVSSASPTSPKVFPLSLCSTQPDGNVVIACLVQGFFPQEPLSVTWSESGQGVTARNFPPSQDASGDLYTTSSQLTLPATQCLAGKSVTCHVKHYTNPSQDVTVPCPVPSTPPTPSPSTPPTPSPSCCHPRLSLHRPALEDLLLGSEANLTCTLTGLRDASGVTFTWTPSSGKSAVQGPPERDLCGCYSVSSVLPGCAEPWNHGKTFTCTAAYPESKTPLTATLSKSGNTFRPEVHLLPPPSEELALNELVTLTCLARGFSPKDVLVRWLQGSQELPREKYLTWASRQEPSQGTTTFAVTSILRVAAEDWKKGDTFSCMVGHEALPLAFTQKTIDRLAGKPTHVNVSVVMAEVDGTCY
light: DIQLTQSPSFLSASVGDRVTITCRASQGISSDLAWYQQKPGKAPNLLIYAASTLQSGVPSRFSGSGSGTEFTLTISSLQPEDFATYYCQQLNSDLYTFGQGTKLEIKRTVAAPSVFIFPPSDEQLKSGTASVVCLLNNFYPREAKVQWKVDNALQSGNSQESVTEQDSKDSTYSLSSTLTLSKADYEKHKVYACEVTHQGLSSPVTKSFNRGEC
chain 1: not shown
chain 2: not shown
Take B3: the “IC50, microneutralization assay” value in assay [2] came out at 0.04 nM.
